Substitutions are numbered along the chain they refer to. Where no end group is shown, it is not given here.

Experiment [1] has as its target T1, AnkB_repeats (24 ANK repeats of human 220 kDa ankyrin-B, residues 28–873) (human, UniProt Q01484 28-873).
T1 construct: ankyrin-B (AnkB), human, 220 kDa isoform used as template, ANK repeats, residues 28-873; source: E. coli BL21 (DE3), purified
T1 sequence (looked up): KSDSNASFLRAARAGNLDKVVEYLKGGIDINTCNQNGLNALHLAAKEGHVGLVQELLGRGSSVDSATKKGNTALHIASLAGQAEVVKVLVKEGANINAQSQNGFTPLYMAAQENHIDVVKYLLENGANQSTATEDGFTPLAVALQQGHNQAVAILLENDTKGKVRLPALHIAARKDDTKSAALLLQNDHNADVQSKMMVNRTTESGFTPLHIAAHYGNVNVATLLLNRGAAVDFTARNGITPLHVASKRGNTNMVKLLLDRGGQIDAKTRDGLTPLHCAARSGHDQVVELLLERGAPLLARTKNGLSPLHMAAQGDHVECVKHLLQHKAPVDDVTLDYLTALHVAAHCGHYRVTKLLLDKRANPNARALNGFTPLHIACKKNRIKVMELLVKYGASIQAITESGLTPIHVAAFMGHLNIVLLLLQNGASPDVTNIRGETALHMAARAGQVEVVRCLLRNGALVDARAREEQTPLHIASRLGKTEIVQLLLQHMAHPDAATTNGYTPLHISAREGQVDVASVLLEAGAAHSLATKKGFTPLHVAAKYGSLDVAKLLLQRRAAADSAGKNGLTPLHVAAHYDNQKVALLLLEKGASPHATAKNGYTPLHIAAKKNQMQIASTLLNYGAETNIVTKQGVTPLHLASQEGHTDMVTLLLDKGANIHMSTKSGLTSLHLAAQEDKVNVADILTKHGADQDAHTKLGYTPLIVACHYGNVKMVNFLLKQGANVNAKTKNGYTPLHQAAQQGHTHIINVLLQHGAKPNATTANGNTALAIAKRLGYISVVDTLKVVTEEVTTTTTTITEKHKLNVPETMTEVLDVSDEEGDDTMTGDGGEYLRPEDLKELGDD
Nature of the experiment: fluorescence polarisation; FITC-labeled peptide (~1 µM) titrated with AnkB_repeats WT or mutants; 25°C; 50 mM Tris pH 8.0, 100 mM NaCl, 1 mM DTT, 1 mM EDTA; one-site binding model. The following applies: both partners purified. Background: Fluorescence polarisation rises when a labelled molecule tumbles more slowly, as on binding a larger partner.

The target in experiment [2] is T2, AnkB_repeats site 1 mutant 'FF' (Phe131 and Phe164 to Gln) (human, UniProt Q01484 28-873, Phe131 substituted with Gln | Phe164 substituted with Gln).
T2 sequence: T1 sequence (looked up) with F104Q, F137Q
Description: FP.

Experiment [3] has as its target T3, AnkB_repeats (24 ANK repeats of human 220 kDa ankyrin-B, residues 28–873) (human, UniProt Q01484 28-873).
T3 chain: T1 sequence (looked up)
Description: FP.

The target of experiment [4] is T4, AnkB_repeats site 2 mutant 'IL' (Ile267 and Leu300 to Gln) (human, UniProt Q01484 28-873, Ile267 substituted with Gln | Leu300 substituted with Gln).
T4 sequence: T1 sequence (looked up) with I240Q, L273Q
Nature of the experiment: FP.

B1: Cav1.3 peptide (mouse Cav1.3 residues 2134–2166), FITC-labeled (peptide, UniProt Q99246-4 2134-2166, looked up)
peptide: ELQDFGPGYSDEEPDPGREEEDLADEMICITTL
modifications: also: FITC label (position not given here)
notes: voltage-gated calcium channel Cav1.3, mouse, residues 2134-2166; also called voltage-gated calcium channel Cav1.3 peptide; source: synthetic peptide (commercially synthesized)
As to B1, the binding result in experiment [1] is recorded as “binds”. Moreover, the Kd is 3.3 µM in experiment [2], 3.3 µM in experiment [3] and 8.2 µM in experiment [4].

By Kd is commonly meant the equilibrium constant for the complex coming apart. Read a high Kd as weaker binding.
